assay: yeast display, Sf9 membrane polyspecificity reagent, FACS + sequencing; frameworks hold sequencing errors
Summary of the method: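 Galactose-induced (36–48 hours) yeast carrying a synthetic nanobody display library were exposed to 10% biotinylated, detergent-solubilized Sf9 membrane reagent at 4 °C for 1 hour. FACS followed streptavidin microbead enrichment, using low and high (top ~1%) gates for expression (anti-HA) and reagent binding (streptavidin). Colony PCR, MiSeq 2 × 250 sequencing and CDR-length filtering followed. Labels for polyreactivity reflect the gate of origin.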

Sequence	polyreactivity (PSR sort gate)
QVQLVESGGGLVQAGGSLRLSCAASGSIFEGNGMGRYRQAPGKERELVAAITFRSGSTYYADSVKGRFTISRDNAKNTVYLQMNSLKPEDTAVYYCAADEYYQVSAYDYWGQGTQVNVSS	low polyreactivity
QVQLVESGGGLVQAGGSLRLSCAASGSIFEGNTMGWYRQAPGKERELVASISSTANTYYADSVKGRFTLSRDNAKKNVYLQMNSLKPEDTAVYYCNVARYFLVPVVDDNYWGQGTQVTVSS	low polyreactivity
QVQLVESGGGLVQAGGSLRLSCAASGSIFEGYVMGWYRQAPGKERELVATISFSGGSTYYADSVKGRFTISRDNAKNTVYLQMNSLKPEDTAVYYCATSRYFNTGRGYWGQGTQVTVSS	low polyreactivity
QVQLVESGGGLVQAGGSLRLSCAASGSIFEINAMGWYRQAPGKERELVAAITGSGGSTHYADSVKGRFTISRDTAKNTVYLQMNSLKPEDTAVYYCAADICYFTKYGYWGQGTQVTVSS	low polyreactivity
QVQLVESGGGLVQAGGSLRLSCAASGSIFEINAMGWYRQGPGKERELVAAITGSGGSTHYADSVKGRFTISRDNAKNTDYLQMNSLKPEDTAVYYGAAVPRYQDGYWGQGTQVTVSS	low polyreactivity
QVQLVESGGGLVQAGGSLRLSCAASGSIFEPNAMGWYRQAPGKERELVAAISWNDGDTYYADSVKGRFTISRDNAKNTVYLQMNCLKPEDTAVYYCAAETGYAFDYWGQGTQVTVSS	low polyreactivity
QVQLVESGGGLVQAGGSLRLSCAASGSIFEPNAMGWYSQAPGKERELVAAISWNDGDTYYADSVKGRFTISRDNAKNTVYLQMNSLKPEDTAVYYCAAETGYAFDYWGQGTQVTVSS	low polyreactivity
QVQLVESGGGLVQAGGSLRLSCAASGSIFEPYAMGLYRQAPGKERELVAAIRWSGGSTYYADSVKGRFTISRDNAKNTVYLQMNSLKPEDTAVYYCAKYFPAGYYYWGQGTQVTVSS	low polyreactivity
QVQLVESGGGLVQAGGSLRLSCAASGSIFERYDMGWYRQAPGKERELVAAITSAGITYYADSVKGRFTISRDNAKNTVYLQMNSLKPEDTAVYYCAAQGRRGAPYRHVIEGDYWGQGTQVTVSS	low polyreactivity
QVQLVESGGGLVQAGGSLRLSCAASGSIFESNAMGWYRQAPGKEREFVAAIDWGDGSTSYADSVKGRFTISRDNAKNTVYLQMNSLKPEDTAVYYCAARSVFDLVYYNLIFDYWGQGTQVTVSS	high polyreactivity
QVQLVESGGGLVQAGGSLRLSCAASGSIFESYAMGWYRQAPGKERELVAAITKRGGSTYYADSVKGRFTISRDNAKYTVYLQMNSLKPEDTAVYYCNARWPGIGPIYDYCGQGTQVTVSS	low polyreactivity
QVQLVESGGGLVQAGGSLRLSCAASGSIFEVDALGWYRQAPGKERELVAAITSSDITYYADSVKGRFTISRDHAKTTVYLQMNSLKPEDTAVYYCNGEPPYRVKRSDYWGQGTQVTVSS	low polyreactivity
QVQLVESGGGLVQAGGSLRLSCAASGSIFEVNAMGWYRQAPGKERELVATITYSGGSTYYSDSVKGRFTISRDNAKNTVYLQMHSLKPEDTAVFYCAAPIGDVYVGNGYDSWGQGTQVTVSS	low polyreactivity
QVQLVESGGGLVQAGGSLRLSCAASGSIFEWYAMGWYRQAPGKASALVAAISSGGRTYYADSVKGRFTISRDNAKNTVYLQMISLKPEDTAVYYCAARDVDHVGGSKYYYWGLGTQVTVSS	high polyreactivity
QVQLVESGGGLVQAGGSLRLSCAASGSIFEYNAMGWYRQAPGKERELVAAISRSGGSTYYADSVKGRFTISRDNAKNTVYLQMISLKPEDTAVYYCAARSPRYYRDFGYWGQGTQVTVSS	high polyreactivity
QVQLVESGGGLVQAGGSLRLSCAASGSIFEYNGMGWYRQAPGKERELVAAITTTGTTDYADSVKGRFTISRDNAKNTVYLEMNSLIPEDTSVFYCAADYTYYYKGEYEYWGQGTQVTVSS	low polyreactivity
QVQLVESGGGLVQAGGSLRLSCAASGSIFEYYAMGWYRQAPGKERELVADITTIGGSTYYADSVKGRFTISRDNAKNTVYLQMNSLKPEDTAVYYCAADYFTTFYWYDYWGQGTQVTVSS	high polyreactivity
QVQLVESGGGLVQAGGSLRLSCAASGSIFFAYAMGWYRQAPGKERELVAAITSGVSTNYADSVKGRFTISRDNAKNTVYLQMNSLKPEDTAVYYCNADFDYGFDAGLAVQVVIHDYWGQGTQVTVSS	low polyreactivity
QVQLVESGGGLVQAGGSLRLSCAASGSIFFDYAMGGYRQAPGKERELVAAINSGGTTNYADSVKGRFTISRDNAKNTVYLQMKQPETGRYRGLLLQRFPGYLRWYRWFDYWGQGTQVTVSS	low polyreactivity
QVQLVESGGGLVQAGGSLRLSCAASGSIFFEYAMGWYRQAPGKERALVASINRGGGSTYYADSVKGRFTISRDYAKNTVYLQMNILIPEDTAVYYCAAQWKYRQYYLDYYWGQGTQVTVSS	low polyreactivity
QVQLVESGGGLVQAGGSLRLSCAASGSIFFFNAMGWYRQAPGKERELVAAISESGTSTYYADSVKGRFTISRDNAKNTVFLQMNSLKPEDTAVFYCKVVFRYAYGVYYTPEFYYWGQGTQVTVSS	low polyreactivity
QVQLVESGGGLVQAGGSLRLSCAASGSIFFFYDMGWYRKATGKERELVAAISSSGTRTYYADSVKGRFTISRDNAKNTVYLQMNSLKPEDTAVYYCAVVYPSENYYRYDYWGQVTQVTVSS	high polyreactivity

Sequence	polyreactivity (PSR sort gate)
QVQLVESGGGLVQAGGSLRLSCAASGSIFFGNAMGWYRQAPGKERELVAAIDSGGGTNYADSVKGRFTISRDNAKNTVYLQMNSLKPEDTAVYYCAREQGVNRNHDYWGQGTQVTVSS	low polyreactivity
QVQLVESGGGLVQAGGSLRLSCAASGSIFFGYAMGWYRQAPGKERELVATITSSGGITYYADSVKGRFTISRDNAKNTVYLQMNSLKPEDTAVYYCATYYYYTYDYWGQGTQVTVSS	low polyreactivity
QVQLVESGGGLVQAGGSLRLSCAASGSIFFGYGMGWYRQAPGKERELVATITTSGGTYYADAVKGRFTISRDNAKNTVYLQMNSLKPEDTAVYYCAATAAALDGNTIMYYWGQGTQVTVSS	low polyreactivity
QVQLVESGGGLVQAGGSLRLSCAASGSIFFINAMGWYRQAPGKERELVAAIRRGGSTYADSVKGRFTISRDNAKNTVYLQMNSLKPEDTAVYYCAARITWGATAKSRYSYLYDYWGQGTQVTVSS	high polyreactivity
QVQLVESGGGLVQAGGSLRLSCAASGSIFFIYAMGLYRQAPGKERELVAGITSRGITNYADSVKGRFTISRDNAKNTVYLQMNSLKPEDTAVYYCAAGDENYTDRYDYWGQGTQVTVSS	low polyreactivity
QVQLVESGGGLVQAGGSLRLSCAASGSIFFLYAMGWYRQAPGKERELVAAISRDGRTNYADSVKGRFTISRDNAKYTVYLQMKSLKPEDTAVYYGAKDGNHPGAVGYGYWGQGTQVTVSS	low polyreactivity
QVQLVESGGGLVQAGGSLRLSCAASGSIFFPNPLGWYRQAPGKERELVDAISWSGDSSYADSVKGRFTISRDNAKNTVYLQMNSLKPEDTAVYYCAAVYLWWSYEFDYWGQGTQVTVSS	low polyreactivity
QVQLVESGGGLVQAGGSLRLSCAASGSIFFPYTMGWYRQAPGKERELVARISLGGGRTYYADSVKGRFTISRDNAKNTVYLQMNSLKPEDTAVYYCNRGGWYAYYWGQGTQVTVSS	high polyreactivity
QVQLVESGGGLVQAGGSLRLSCAASGSIFFPYVMGWYRQAPGKERELVAAITYRAGSTYYADSVKGRFTISRDNAKNTVYLQMNSLKPEDTAVYYCAAVVSRSGEFGYWGQGTQVTVSS	low polyreactivity
QVQLVESGGGLVQAGGSLRLSCAASGSIFFRNAMGWYRQAPGKERELVASITSGGSTYYADSVKGRFTISRDNAKNTVYLLMNSLKPEDTAVFYCAARLWHLSYAGQGGDYWGQGTQVTVSS	low polyreactivity
QVQLVESGGGLVQAGGSLRLSCAASGSIFFRYAMGWYRPAPGKERELVAAISSDGSTYYADSVKGRFTISRDNAKNTVYLQMNSLKPEDTAVYYCNAEQAIFYWYATVTYDYWGQGTQVTVSS	low polyreactivity
QVQLVESGGGLVQAGGSLRLSCAASGSIFFSNAMGWYRQAPGKEREFVATITSSGVGTYYADSVKGRFTISRDNAKNTVYLQMNSLKPEDTAVDYCDADYNSQEDYWGQGTQVTVSS	low polyreactivity
QVQLVESGGGLVQAGGSLRLSCAASGSIFFSYAMGWYRQAPGKERELVAAITSSVDSTYYADSVKGRFTISRDNAKNTVYLQMNSLKPEDTAVYYCDARYRSGYYRYDYWGQGTQVTVSS	low polyreactivity
QVQLVESGGGLVQAGGSLRLSCAASGSIFFSYAMGWYRQAPGKERELVAGINWSGGSTYADSVKGRFTISRDNAKNPVYLQMNSLTPEDTAVYYCAAKYYSERSRYHYWGQGTQVTVSS	low polyreactivity
QVQLVESGGGLVQAGGSLRLSCAASGSIFFSYAMGWYRQAPGKERELVAGINWSGGSTYADSVKGRFTISRDNAKNTVYLQMNSLKPEDTAVYYCAAKYYSERSRYHYWGQGTQVTVSS	low polyreactivity
QVQLVESGGGLVQAGGSLRLSCAASGSIFFTNVMGWYRQAPGKEREFVAAITGGGGSTYYADSVKGRFTISRDNAKNTVYLQMNSLKPEDTAVYYCATKAKPRSGYNYWGQGTQVTVSS	low polyreactivity
QVQLVESGGGLVQAGGSLRLSCAASGSIFFTYAMGWYRQAPGKERELVAVISSNGARTYYADSVKGRFTISRDNAKNTVYLQMNSLKPEDPAVYYCAARSQGNYGWGQGTQVTVSS	high polyreactivity
QVQLVESGGGLVQAGGSLRLSCAASGSIFFVNAMGWYRQAPGKERELVAAITSGGNTNYADSVKGRFTISRDNAKNTVYFQMNSLKPEDTAVFYSATSYYLAYRSITTYDYWGQGTQVTVSS	low polyreactivity
QVQLVESGGGLVQAGGSLRLSCAASGSIFFWYTMGWYREAPGKERELVATITGSGSSTTYADSVKGRFTISRDNAKNTVYLQMNSLKPEDTAVYYCAAADIIDHSFPYDYWGQGTQVTVSS	low polyreactivity
QVQLVESGGGLVQAGGSLRLSCAASGSIFFYAMGWYRQAPGKERELVAGITSGGSTYYADSVKGRFTISRDNAKNTVYLQMNSLKPEDTAVYYCAARRRGYKYTYNSWGQGTQVTVSS	high polyreactivity
QVQLVESGGGLVQAGGSLRLSCAASGSIFFYNAMGWYRQAPGKERELVAAISRGGNTNYADSVKGRFTISRDNAKNTVNLQLNSLKPEDTAVYYCNADYSFWATPYWEYGYDYWGQGTQVTVTS	low polyreactivity
